Measurements taken from US20210214435A1 (MorphoSys, published 2021).
Values belong to the binder of their own block, whether it stands above or below them.

How the values were obtained:
[1] = target: T1, human GPVI-1A extracellular domain fused at its C-terminus to human IgG1 Fc (GPVI-Fc) (human); test: Solution equilibrium titration (SET), Fab with GPVI-Fc
T1 construct: also called hGPVI-1a; hGPVI
Method: (§1) Affinity determination in solution was basically performed as described in the literature (Friguet et al. 1985). In order to improve the sensitivity and accuracy of the SET method, it was transferred from classical ELISA to ECL-based technology (Haenel et al. 2005).
(§2) 1 mg/mL goat-anti-human (Fab)2 fragment specific antibodies (Dianova) were labeled with MSD Sulfo TAG™ NHS-Ester (Meso Scale Discovery | Gaithersburg | Md. | USA) according to the manufacturer's instructions. The experiments were carried out in polypropylene microtiter plates and PBS (GIBCO 14190 | pH 7.0-7.2) containing 0.5% BSA and 0.02% Tween20 as assay buffer. Serial dilutions of unlabeled human GPVI-Fc (SEQ ID NO: 4), cynomolgus monkey GPVI-Fc (SEQ ID NO: 7), and mouse GPVI-Fc (SEQ ID NO: 8) (as prepared in Example 1) were prepared, starting with a concentration at least 10 times higher than the expected KD. Wells without antigen were used to determine Bmax values; wells containing only assay buffer were used to determine background. After addition of appropriate amount of binder (antibody concentration similar to or below the expected KD, 60 μL final volume), the mixture was incubated over night at RT. MSD plates were coated with antigen or biotinylated antigen on standard and streptavidin plates, respectively (30 μL per well). After washing the plate with PBS with 0.05% Tween 20, the equilibrated samples were transferred to the plates and incubated for 20 min. Following incubation, 30 μL per well of the MSD-Sulfo-tag labeled detection antibody (anti-human (Fab)2 | final dilution typically 1:2,000) was added to the washed MSD plate and incubated for 30 min at RT on an Eppendorf shaker (700 rpm). After washing the MSD plate and adding 30 μL/well MSD Read Buffer T with surfactant, electrochemiluminescence signals were detected using a Sector Imager 6000 (Meso Scale Discovery | Gaithersburg | Md. | USA). The data was evaluated with XLfit (IDBS) software applying customized fitting models. For KD determination of Fabs the fit model according to (Haenel et al. 2005), modified according to (Abraham et al.) was used.

[2] = target: T2, cynomolgus monkey GPVI extracellular domain fused at its C-terminus to human IgG1 Fc (GPVI-Fc) (cynomolgus monkey; human); test: as above
T2 construct: also called cyGPVI-2; cyGPVI
Method: as §1, §2

[3] = target: T2, cynomolgus monkey GPVI extracellular …; test: Competition ELISA (MSD): cynomolgus GPVI-Fc preincubated with Fab, then on coated VitroCol (competitor)
Method: 1 or 10 μg/ml of recombinant GPVI collagen substrate (crosslinked collagen-related peptide (CRP-XL (Anaspec, Inc.), rat-tail collagen (Enzo Life Sciences) or VitroCol (Advanced BioMatrix, Inc.) was coated on a MSD-plate over night at 4° C., washed with PBST, blocked for 1 h at RT with PBS supplemented with 0.05% Tween-20 and 3% skim milk powder, and subsequently washed again with PBST. Purified recombinant GPVI antigens (human, cynomolgus monkey or mouse GPVI as prepared in Example 1) diluted in PBS and varying concentrations of Fab (comprising a modified heavy chain constant region) diluted in PBS (final concentration range 200-0.3 μg/ml) were incubated in a polypropylene plate for 30 min at RT. Fab/GPVI-Fc mixture was added to coated collagen substrate for 1 h at RT. After washing with PBST, bound GPVI form different species was detected using an ECL-conjugated detection antibody directed against human Fc (Jackson Immuno Research) for 1 h at RT. MSD read buffer (Meso Scale Discovery) was added prior to readout in a Sector Imager6000 (Meso Scale Discovery).

[4] = target: T3, rat GPVI extracellular domain fused at its C-terminus to human IgG1 Fc (GPVI-Fc) (rat; human); test: ELISA on coated rat GPVI-Fc
T3 construct: also called rGPVI

[5] = target: T4, mouse GPVI (full-length) expressed on stably transfected CHO cells (mouse, UniProt P0C191 22-313); test: Cell ELISA (MSD) on CHO cells expressing mouse GPVI
T4 sequence: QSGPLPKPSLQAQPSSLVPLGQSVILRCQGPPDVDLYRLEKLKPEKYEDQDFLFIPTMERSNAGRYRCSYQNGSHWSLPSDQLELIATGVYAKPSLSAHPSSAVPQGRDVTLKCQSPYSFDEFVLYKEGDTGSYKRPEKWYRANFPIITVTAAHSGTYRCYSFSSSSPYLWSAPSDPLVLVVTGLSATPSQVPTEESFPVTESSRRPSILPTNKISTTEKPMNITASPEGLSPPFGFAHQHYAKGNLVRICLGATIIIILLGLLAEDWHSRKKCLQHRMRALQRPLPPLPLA

[6] = target: T5, mouse GPVI on the cell surface of mouse platelets (mouse, UniProt P0C191 22-313); test: FACS on mouse platelets
T5 construct: whole, on cells; also called GPVI on murine platelets
T5 sequence (looked up): T4 sequence

[7] = target: T6, mouse GPVI extracellular domain fused at its C-terminus to human IgG1 Fc (GPVI-Fc) (mouse; human); test: ELISA on coated mouse GPVI-Fc
T6 construct: also called mGPVI; mouse GPVI-Fc

[8] = target: T6, mouse GPVI extracellular domain fused …; test: Solution equilibrium titration (SET), Fab with GPVI-Fc
Method: as §1, §2

- Kd [1]: 54 pM
- Kd [2]: 36 pM
- IC50 [3]: 5500 pM
- Max. inhibition at 200 nM Fab [%] [3]: 100%
- binding result [4]: no binding
- binding result [5]: no binding
- binding result [6]: no binding
- binding result [7]: no binding
B1: Reference Control Antibody RefFab #1 (humanized GPVI antibody of WO2011073954A2, SANOFI) (Fab, V domains shown)
VH: EVQLLESGPGLVAPSGSLSITCTVSGFSLTGYGVNWVRQPPGKGLEWLGMIWGDGSTDYQSTLKSRLSISKDNSKSQVFLKMNSLRTDDTARYYCARDLPMDYWGLGTSVTVSS
VL: DIQMTQSPSSLSASVGGRVTITCKASQDINKYIAWYQHKPGKGPSLLIHYTSTLQPGVPSRFSGSGSGRDYSFSISNLQPEDIATYYCLQYANLLTFGGGTKLEIKR
notes: Cloned into mammalian Fab expression vectors; a glycine-serine linker (G4S)2 was added to the C-terminus of the Fab heavy chain

- Kd [1]: 27 pM
- Kd [8]: 7100 pM
- Kd [2]: 24 pM
- IC50 [3]: 4300 pM
- Max. inhibition at 200 nM Fab [%] [3]: 100%
B2: Fab #2 comprising a modified heavy chain constant region (Fab, V domains shown)
VH: QVQLVESGGGLVKPGGSLRLSCAASGFSFSDHYMSWIRQAPGKGLEWVSSVGSEGKFIDYAASVKGRFTISRDNAKNSLYLQMNSLRAEDTAVYYCARHYREFRWHYYYFDYWGQGTLVTVSS
VL: QSVLTQPPSVSGAPGQRVTISCTGSSSNIGAGYDVHWYQQLPGTAPKLLIYGNSNRPSGVPDRFSGSKSGTSASLAITGLQAEDEADYYCQSHDLGAHVWVFGGGTKLTVLG
notes: Human Fab from the Ylanthia library; produced in HKB11 cells; also called Fab #2 mod; HC

- Kd [1]: 62 pM
- Kd [8]: 600 pM
- Kd [2]: 68 pM
- IC50 [3]: 4700 pM
- Max. inhibition at 200 nM Fab [%] [3]: 100%
B3: Fab #3 comprising a modified heavy chain constant region (Fab, V domains shown)
VH: QVQLVESGGGLVKPGGSLRLSCAASGFSFGDYYVSWIRQAPGKGLEWVSAIGGSGSAVQYAESVKGRFTISRDNAKNSLYLQMNSLRAEDTAVYYCARHYREFRWHYYYFDYWGQGTLVTVSS
VL: B2 VL
notes: Human Fab from the Ylanthia library; produced in HKB11 cells; also called Fab #3 mod; HC

- Kd [1]: 22 pM
- Kd [8]: 290 pM
- Kd [2]: 17 pM
- IC50 [3]: 8100 pM
- Max. inhibition at 200 nM Fab [%] [3]: 91%
B4: Fab #4 comprising a modified heavy chain constant region (Fab, V domains shown)
VH: QVQLVQSGAEVKKPGASVKVSCKASGGAFTSSYMHWVRQAPGQGLEWMGIIEPTGASTLYAQRFQGRVTMTRDTSTSTVYMELSSLRSEDTAVYYCARTGIALPLGFDLWGQGTLVTVSS
VL: QSVLTQPPSVSAAPGQKVTISCSGSSSNIGNNYVSWYQQLPGTAPKLLIYDNNKRPSGIPDRFSGSKSGTSATLGITGLQTEDEADYYCAAWSTRFRWVFGGGTKLTVLG
notes: Human Fab from the Ylanthia library; produced in HKB11 cells; also called Fab #4 mod; HC

- Kd [1]: 68 pM
- Kd [8]: 28000 pM
- Kd [2]: 75 pM
- IC50 [3]: 9700 pM
- Max. inhibition at 200 nM Fab [%] [3]: 84%
B5: Fab #1 comprising a modified heavy chain constant region (Fab, V domains shown)
VH: QVQLVQSGAEVKKPGASVKVSCKASGYTFTSHYMHWVRQAPGQGLEWMGLIEPSEGETEYAQRFQGRVTMTRDTSTSTVYMELSSLRSEDTAVYYCARDSSRSYPLGFDIWGQGTLVTVSS
VL: QSVLTQPPSVSAAPGQKVTISCSGSSSNIGNNYVSWYQQLPGTAPKLLIYDNNKRPSGIPDRFSGSKSGTSATLGITGLQTEDEADYYCAAWDFRSSRWVFGGGTKLTVLG
notes: Human Fab from the Ylanthia library; produced in HKB11 cells; also called Fab #1 mod; HC
